# Changes are numbered by the printed parent chain. Numbers in names are those of the source.
# B1: CE115HA000 N54F one-arm antibody (antibody, human IgG1, kappa, L234A L235A, N297A, name in Kabat numbering)
# heavy: QVQLVESGGGVVQPGRSLRLSCAASGFTFSNAWMHWVRQAPGKGLEWVAQIKAKSNFYATYYAESVKGRFTISRDDSKNSLYLQMNSLKTEDTAVYYCRYVHYGAYYGVDAWGQGTTVTVSSASTKGPSVFPLAPSSKSTSGGTAALGCLVKDYFPEPVTVSWNSGALTSGVHTFPAVLQSSGLYSLSSVVTVPSSSLGTQTYICNVNHKPSNTKVDKKVEPKSCDKTHTCPPCPAPEAAGGPSVFLFPPKPKDTLMISRTPEVTCVVVDVSHEDPEVKFNWYVDGVEVHNAKTKPREEQYASTYRVVSVLTVLHQDWLNGKEYKCKVSNKALPAPIEKTISKAKGQPREPQVYTLPPSRCELTKNQVSLSCAVKGFYPSDIAVEWESNGQPENNYKTTPPVLDSDGSFFLVSKLTVDKSRWQQGNVFSCSVMHEALHNHYTQKSLSLSPDYKDDDDK
# chain: EPKSSDKTHTCPPCPAPELLGGPSVFLFPPKPKDTLMISRTPEVTCVVVDVSHEDPEVKFNWYVDGVEVHNAKTKPREEQYNSTYRVVSVLTVLHQDWLNGKEYKCKVSNKALPAPIEKTISKAKGQPREPQVCTLPPSRDELTKNQVSLWCLVKGFYPSDIAVEWESNGQPENNYKTTPPVLDSDGSFFLYSKLTVDKSRWQQGNVFSCSVMHEALHNRYTQKSLSLSP
# light: DIVMTQSPLSLPVTPGEPASISCRSSQSLVHSNRNTYLHWYQQKPGQAPRLLIYKVSNRFSGVPDRFSGSGSGTDFTLKISRVEAEDVGVYYCGQGTQVPYTFGQGTKLEIKRTVAAPSVFIFPPSDEQLKSGTASVVCLLNNFYPREAKVQWKVDNALQSGNSQESVTEQDSKDSTYSLSSTLTLSKADYEKHKVYACEVTHQGLSSPVTKSFNRGEC
# notes: one-arm antibody
# B2: CE115HA000 S52cQ one-arm antibody (antibody, human IgG1, kappa, L234A L235A, N297A, name in Kabat numbering)
# heavy: B1 heavy with S55Q, F57N
# chain: B1 chain
# light: B1 light
# notes: one-arm antibody
# B3: CE115HA000 T57I one-arm antibody (antibody, human IgG1, kappa, L234A L235A, N297A, name in Kabat numbering)
# heavy: B1 heavy with F57N, T60I
# chain: B1 chain
# light: B1 light
# notes: one-arm antibody
# B4: CE115HA000 S52cD one-arm antibody (antibody, human IgG1, kappa, L234A L235A, N297A, name in Kabat numbering)
# heavy: B1 heavy with S55D, F57N
# chain: B1 chain
# light: B1 light
# notes: one-arm antibody
# B5: CE115HA000 N54G one-arm antibody (antibody, human IgG1, kappa, L234A L235A, N297A, name in Kabat numbering)
# heavy: B1 heavy with F57G
# chain: B1 chain
# light: B1 light
# notes: one-arm antibody
# B6: CE115HA000 S62D one-arm antibody (antibody, human IgG1, kappa, L234A L235A, N297A, name in Kabat numbering)
# heavy: B1 heavy with F57N, S65D
# chain: B1 chain
# light: B1 light
# notes: one-arm antibody
# B7: CE115HA000 N54K one-arm antibody (antibody, human IgG1, kappa, L234A L235A, N297A, name in Kabat numbering)
# heavy: B1 heavy with F57K
# chain: B1 chain
# light: B1 light
# notes: one-arm antibody
# B8: CE115HA000 S62K one-arm antibody (antibody, human IgG1, kappa, L234A L235A, N297A, name in Kabat numbering)
# heavy: B1 heavy with F57N, S65K
# chain: B1 chain
# light: B1 light
# notes: one-arm antibody
# B9: CE115HA000 T57A one-arm antibody (antibody, human IgG1, kappa, L234A L235A, N297A, name in Kabat numbering)
# heavy: B1 heavy with F57N, T60A
# chain: B1 chain
# light: B1 light
# notes: one-arm antibody
# B10: CE115HA000 Q50L one-arm antibody (antibody, human IgG1, kappa, L234A L235A, N297A, name in Kabat numbering)
# heavy: B1 heavy with Q50L, F57N
# chain: B1 chain
# light: B1 light
# notes: one-arm antibody
# B11: CE115HA000 S52cG one-arm antibody (antibody, human IgG1, kappa, L234A L235A, N297A, name in Kabat numbering)
# heavy: B1 heavy with S55G, F57N
# chain: B1 chain
# light: B1 light
# notes: one-arm antibody
# B12: CE115HA000 Q50A one-arm antibody (antibody, human IgG1, kappa, L234A L235A, N297A, name in Kabat numbering)
# heavy: B1 heavy with Q50A, F57N
# chain: B1 chain
# light: B1 light
# notes: one-arm antibody
# B13: CE115HA000 Q50D one-arm antibody (antibody, human IgG1, kappa, L234A L235A, N297A, name in Kabat numbering)
# heavy: B1 heavy with Q50D, F57N
# chain: B1 chain
# light: B1 light
# notes: one-arm antibody
# B14: CE115HA000 Q50E one-arm antibody (antibody, human IgG1, kappa, L234A L235A, N297A, name in Kabat numbering)
# heavy: B1 heavy with Q50E, F57N
# chain: B1 chain
# light: B1 light
# notes: one-arm antibody
# B15: CE115HA000 S52cV one-arm antibody (antibody, human IgG1, kappa, L234A L235A, N297A, name in Kabat numbering)
# heavy: B1 heavy with S55V, F57N
# chain: B1 chain
# light: B1 light
# notes: one-arm antibody
# B16: CE115HA000 S52cA one-arm antibody (antibody, human IgG1, kappa, L234A L235A, N297A, name in Kabat numbering)
# heavy: B1 heavy with S55A, F57N
# chain: B1 chain
# light: B1 light
# notes: one-arm antibody
# B17: CE115HA000 Q50K one-arm antibody (antibody, human IgG1, kappa, L234A L235A, N297A, name in Kabat numbering)
# heavy: B1 heavy with Q50K, F57N
# chain: B1 chain
# light: B1 light
# notes: one-arm antibody
# B18: CE115HA000 T28S one-arm antibody (antibody, human IgG1, kappa, L234A L235A, N297A, name in Kabat numbering)
# heavy: B1 heavy with T28S, F57N
# chain: B1 chain
# light: B1 light
# notes: one-arm antibody
# B19: CE115HA000 R16Q one-arm antibody (antibody, human IgG1, kappa, L234A L235A, N297A, name in Kabat numbering)
# heavy: B1 heavy with R16Q, F57N
# chain: B1 chain
# light: B1 light
# notes: one-arm antibody
# B20: CE115HA000 S74A one-arm antibody (antibody, human IgG1, kappa, L234A L235A, N297A, name in Kabat numbering)
# heavy: B1 heavy with F57N, S77A
# chain: B1 chain
# light: B1 light
# notes: one-arm antibody
# B21: CE115HA000 R16E one-arm antibody (antibody, human IgG1, kappa, L234A L235A, N297A, name in Kabat numbering)
# heavy: B1 heavy with R16E, F57N
# chain: B1 chain
# light: B1 light
# notes: one-arm antibody
# B22: CE115HA000 S30D one-arm antibody (antibody, human IgG1, kappa, L234A L235A, N297A, name in Kabat numbering)
# heavy: B1 heavy with S30D, F57N
# chain: B1 chain
# light: B1 light
# notes: one-arm antibody
# B23: CE115HA000 R19T one-arm antibody (antibody, human IgG1, kappa, L234A L235A, N297A, name in Kabat numbering)
# heavy: B1 heavy with R19T, F57N
# chain: B1 chain
# light: B1 light
# notes: one-arm antibody
# B24: CE115HA000 S52cL one-arm antibody (antibody, human IgG1, kappa, L234A L235A, N297A, name in Kabat numbering)
# heavy: B1 heavy with S55L, F57N
# chain: B1 chain
# light: B1 light
# notes: one-arm antibody
# B25: CE115HA000 Q50I one-arm antibody (antibody, human IgG1, kappa, L234A L235A, N297A, name in Kabat numbering)
# heavy: B1 heavy with Q50I, F57N
# chain: B1 chain
# light: B1 light
# notes: one-arm antibody
# B26: CE115HA000 S52cF one-arm antibody (antibody, human IgG1, kappa, L234A L235A, N297A, name in Kabat numbering)
# heavy: B1 heavy with S55F, F57N
# chain: B1 chain
# light: B1 light
# notes: one-arm antibody
# B27: CE115HA000 T28D one-arm antibody (antibody, human IgG1, kappa, L234A L235A, N297A, name in Kabat numbering)
# heavy: B1 heavy with T28D, F57N
# chain: B1 chain
# light: B1 light
# notes: one-arm antibody
# B28: CE115HA000 S30G one-arm antibody (antibody, human IgG1, kappa, L234A L235A, N297A, name in Kabat numbering)
# heavy: B1 heavy with S30G, F57N
# chain: B1 chain
# light: B1 light
# notes: one-arm antibody
# B29: CE115HA000 Q50Y one-arm antibody (antibody, human IgG1, kappa, L234A L235A, N297A, name in Kabat numbering)
# heavy: B1 heavy with Q50Y, F57N
# chain: B1 chain
# light: B1 light
# notes: one-arm antibody
# B30: CE115HA000 S62E one-arm antibody (antibody, human IgG1, kappa, L234A L235A, N297A, name in Kabat numbering)
# heavy: B1 heavy with F57N, S65E
# chain: B1 chain
# light: B1 light
# notes: one-arm antibody
# B31: CE115HA000 S52cY one-arm antibody (antibody, human IgG1, kappa, L234A L235A, N297A, name in Kabat numbering)
# heavy: B1 heavy with S55Y, F57N
# chain: B1 chain
# light: B1 light
# notes: one-arm antibody
# B32: CE115HA000 Q50S one-arm antibody (antibody, human IgG1, kappa, L234A L235A, N297A, name in Kabat numbering)
# heavy: B1 heavy with Q50S, F57N
# chain: B1 chain
# light: B1 light
# notes: one-arm antibody
# B33: CE115HA000 S52cK one-arm antibody (antibody, human IgG1, kappa, L234A L235A, N297A, name in Kabat numbering)
# heavy: B1 heavy with S55K, F57N
# chain: B1 chain
# light: B1 light
# notes: one-arm antibody
# Target: T1, CD3 epsilon homodimer protein (UniProt P07766 23-126)
# T1 construct: also called CD3 (CD3 epsilon)
# T1 sequence (P07766 23-126): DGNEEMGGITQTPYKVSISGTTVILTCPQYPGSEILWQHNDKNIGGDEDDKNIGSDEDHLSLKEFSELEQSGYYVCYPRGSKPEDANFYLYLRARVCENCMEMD
# Experiment: SPR Biacore T200, antibody over immobilised CD3e homodimer;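 further: CD3 epsilon homodimer amine-coupled on a CM4 chip, run at 25 °C in HBS-EP+, Z = bound amount of each single-residue H chain variant over that of the parent antibody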
row,ratio of amounts bound (Z=Y/X vs CE115HA000),Binder
1,1.12,B1
2,1.04,B2
3,0.61,B3
4,0.6,B4
5,0.98,B5
6,0.92,B6
7,1.2,B7
8,1.19,B8
9,0.98,B9
10,0.23,B10
11,0.97,B11
12,0.24,B12
13,0.27,B13
14,0.26,B14
15,0.93,B15
16,0.96,B16
17,0.33,B17

row,ratio of amounts bound (Z=Y/X vs CE115HA000),Binder
1,0.91,B18
2,0.9,B19
3,1.05,B20
4,0.88,B21
5,0.86,B22
6,0.8,B23
7,0.98,B24
8,0.4,B25
9,1.13,B26
10,0.56,B27
11,1.01,B28
12,0.25,B29
13,0.92,B30
14,1.11,B31
15,0.24,B32
16,1.19,B33
